Results as given in publication PMC4569848 (Nature Communications, 2015).

T1: GST-clathrin 1–494 (human, UniProt Q00610 1-494)
T1 construct: clathrin, human, residues 1-494, in pGEX-6P1; source: E. coli BL21, purified (glutathione-Sepharose 4B, eluted with GSH); not shown: GST, N-terminal, kept
T1 sequence (looked up): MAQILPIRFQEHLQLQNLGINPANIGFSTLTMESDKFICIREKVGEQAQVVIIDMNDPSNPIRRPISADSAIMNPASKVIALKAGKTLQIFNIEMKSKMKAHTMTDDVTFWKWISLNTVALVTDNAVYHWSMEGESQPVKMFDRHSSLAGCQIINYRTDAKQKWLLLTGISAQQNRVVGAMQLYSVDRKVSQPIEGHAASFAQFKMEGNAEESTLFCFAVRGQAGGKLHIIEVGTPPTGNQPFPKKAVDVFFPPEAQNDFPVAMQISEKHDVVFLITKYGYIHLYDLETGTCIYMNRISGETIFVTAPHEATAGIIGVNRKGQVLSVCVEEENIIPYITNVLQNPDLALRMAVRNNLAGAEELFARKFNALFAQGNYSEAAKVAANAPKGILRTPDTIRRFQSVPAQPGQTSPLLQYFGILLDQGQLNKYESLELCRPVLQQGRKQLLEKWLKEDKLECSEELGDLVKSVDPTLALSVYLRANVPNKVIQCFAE

B1: β-arrestin-1-D383-F2Y (natural protein, bovine, UniProt P17870 1-418, looked up)
chain: MGDKGTRVFKKASPNGKLTVYLGKRDFVDHIDLVEPVDGVVLVDPEYLKERRVYVTLTCAFRYGREDLDVLGLTFRKDLFVANVQSFPPAPEDKKPLTRLQERLIKKLGEHAYPFTFEIPPNLPCSVTLQPGPEDTGKACGVDYEVKAFCAENLEEKIHKRNSVRLVIRKVQYAPERPGPQPTAETTRQFLMSDKPLHLEASLDKEIYYHGEPISVNVHVTNNTNKTVKKIKISVRQYADICLFNTAQYKCPVAMEEADDTVAPSSTFCKVYTLTPFLANNREKRGLALDGKLKHEDTNLASSTLLREGANREILGIIVSYKVKVKLVVSRGGLLGDLASSDVAVELPFTLMHPKPKEEPPHREVPEHETPVDTNLIELDTNYDDIVFEDFARQRLKGMKDDKEEEEDGTGSPRLNDR
modifications: 3,5-difluorotyrosine (F2Y) at 383
notes: β-arrestin-1, bovine, full-length cDNA in pET22b, amber codon at D383 read as F2Y; source: E. coli BL21 (DE3) with pEVOL-F2YRS and F2Y in the medium, purified (Ni-NTA, gel filtration)
B2: β-arrestin-1-R7-F2Y (natural protein, bovine, UniProt P17870 1-418, looked up)
chain: MGDKGTYVFKKASPNGKLTVYLGKRDFVDHIDLVEPVDGVVLVDPEYLKERRVYVTLTCAFRYGREDLDVLGLTFRKDLFVANVQSFPPAPEDKKPLTRLQERLIKKLGEHAYPFTFEIPPNLPCSVTLQPGPEDTGKACGVDYEVKAFCAENLEEKIHKRNSVRLVIRKVQYAPERPGPQPTAETTRQFLMSDKPLHLEASLDKEIYYHGEPISVNVHVTNNTNKTVKKIKISVRQYADICLFNTAQYKCPVAMEEADDTVAPSSTFCKVYTLTPFLANNREKRGLALDGKLKHEDTNLASSTLLREGANREILGIIVSYKVKVKLVVSRGGLLGDLASSDVAVELPFTLMHPKPKEEPPHREVPEHETPVDTNLIELDTNDDDIVFEDFARQRLKGMKDDKEEEEDGTGSPRLNDR
modifications: 3,5-difluorotyrosine (F2Y) at 7
notes: β-arrestin-1, bovine, full-length cDNA in pET22b, amber codon at R7 read as F2Y; source: E. coli BL21 (DE3) with pEVOL-F2YRS and F2Y in the medium, purified (Ni-NTA, gel filtration)
B3: β-arrestin-1-F277-F2Y (natural protein, bovine, UniProt P17870 1-418, looked up)
chain: MGDKGTRVFKKASPNGKLTVYLGKRDFVDHIDLVEPVDGVVLVDPEYLKERRVYVTLTCAFRYGREDLDVLGLTFRKDLFVANVQSFPPAPEDKKPLTRLQERLIKKLGEHAYPFTFEIPPNLPCSVTLQPGPEDTGKACGVDYEVKAFCAENLEEKIHKRNSVRLVIRKVQYAPERPGPQPTAETTRQFLMSDKPLHLEASLDKEIYYHGEPISVNVHVTNNTNKTVKKIKISVRQYADICLFNTAQYKCPVAMEEADDTVAPSSTFCKVYTLTPYLANNREKRGLALDGKLKHEDTNLASSTLLREGANREILGIIVSYKVKVKLVVSRGGLLGDLASSDVAVELPFTLMHPKPKEEPPHREVPEHETPVDTNLIELDTNDDDIVFEDFARQRLKGMKDDKEEEEDGTGSPRLNDR
modifications: 3,5-difluorotyrosine (F2Y) at 277
notes: β-arrestin-1, bovine, full-length cDNA in pET22b, amber codon at F277 read as F2Y; also called F2Y-F277; source: E. coli BL21 (DE3) with pEVOL-F2YRS and F2Y in the medium, purified (Ni-NTA, gel filtration)
B4: β-arrestin-1-F75-F2Y (natural protein, bovine, UniProt P17870 1-418, looked up)
chain: MGDKGTRVFKKASPNGKLTVYLGKRDFVDHIDLVEPVDGVVLVDPEYLKERRVYVTLTCAFRYGREDLDVLGLTYRKDLFVANVQSFPPAPEDKKPLTRLQERLIKKLGEHAYPFTFEIPPNLPCSVTLQPGPEDTGKACGVDYEVKAFCAENLEEKIHKRNSVRLVIRKVQYAPERPGPQPTAETTRQFLMSDKPLHLEASLDKEIYYHGEPISVNVHVTNNTNKTVKKIKISVRQYADICLFNTAQYKCPVAMEEADDTVAPSSTFCKVYTLTPFLANNREKRGLALDGKLKHEDTNLASSTLLREGANREILGIIVSYKVKVKLVVSRGGLLGDLASSDVAVELPFTLMHPKPKEEPPHREVPEHETPVDTNLIELDTNDDDIVFEDFARQRLKGMKDDKEEEEDGTGSPRLNDR
modifications: 3,5-difluorotyrosine (F2Y) at 75
notes: β-arrestin-1, bovine, full-length cDNA in pET22b, amber codon at F75 read as F2Y; source: E. coli BL21 (DE3) with pEVOL-F2YRS and F2Y in the medium, purified (Ni-NTA, gel filtration)
B5: β-arrestin-1-F388-F2Y (natural protein, bovine, UniProt P17870 1-418, looked up)
chain: MGDKGTRVFKKASPNGKLTVYLGKRDFVDHIDLVEPVDGVVLVDPEYLKERRVYVTLTCAFRYGREDLDVLGLTFRKDLFVANVQSFPPAPEDKKPLTRLQERLIKKLGEHAYPFTFEIPPNLPCSVTLQPGPEDTGKACGVDYEVKAFCAENLEEKIHKRNSVRLVIRKVQYAPERPGPQPTAETTRQFLMSDKPLHLEASLDKEIYYHGEPISVNVHVTNNTNKTVKKIKISVRQYADICLFNTAQYKCPVAMEEADDTVAPSSTFCKVYTLTPFLANNREKRGLALDGKLKHEDTNLASSTLLREGANREILGIIVSYKVKVKLVVSRGGLLGDLASSDVAVELPFTLMHPKPKEEPPHREVPEHETPVDTNLIELDTNDDDIVYEDFARQRLKGMKDDKEEEEDGTGSPRLNDR
modifications: 3,5-difluorotyrosine (F2Y) at 388
notes: β-arrestin-1, bovine, full-length cDNA in pET22b, amber codon at F388 read as F2Y; source: E. coli BL21 (DE3) with pEVOL-F2YRS and F2Y in the medium, purified (Ni-NTA, gel filtration)
B6: β-arrestin-1-N375-F2Y (natural protein, bovine, UniProt P17870 1-418, looked up)
chain: MGDKGTRVFKKASPNGKLTVYLGKRDFVDHIDLVEPVDGVVLVDPEYLKERRVYVTLTCAFRYGREDLDVLGLTFRKDLFVANVQSFPPAPEDKKPLTRLQERLIKKLGEHAYPFTFEIPPNLPCSVTLQPGPEDTGKACGVDYEVKAFCAENLEEKIHKRNSVRLVIRKVQYAPERPGPQPTAETTRQFLMSDKPLHLEASLDKEIYYHGEPISVNVHVTNNTNKTVKKIKISVRQYADICLFNTAQYKCPVAMEEADDTVAPSSTFCKVYTLTPFLANNREKRGLALDGKLKHEDTNLASSTLLREGANREILGIIVSYKVKVKLVVSRGGLLGDLASSDVAVELPFTLMHPKPKEEPPHREVPEHETPVDTYLIELDTNDDDIVFEDFARQRLKGMKDDKEEEEDGTGSPRLNDR
modifications: 3,5-difluorotyrosine (F2Y) at 375
notes: β-arrestin-1, bovine, full-length cDNA in pET22b, amber codon at N375 read as F2Y; also called F2Y-N375; source: E. coli BL21 (DE3) with pEVOL-F2YRS and F2Y in the medium, purified (Ni-NTA, gel filtration)

The binders below were run against T1, GST-clathrin 1–494 (assay: pull-down; β-arrestin-1-F2Y mutants (300 nM) incubated with equal concentrations of GST-clathrin and V2R-phospho-peptide (V2Rpp), or without peptide; pulled down with GST beads; bound β-arrestin-1 detected by western blot with a β-arrestin-1 antibody). Conditions: both partners purified.

Does B1 bind?
Result: binds

Does B2 bind?
Result: binds

Does B3 bind?
Result: binds

Does B4 bind?
Result: binds

Does B5 bind?
Result: binds

Does B6 bind?
Result: binds
